Where two headings read alike, the source gives them in different places.
Key:
[1] = Nonclinical pharmacokinetics in mice; type: in vivo
Description: (§1) Various in vitro and in vivo studies were conducted to characterize the PK of BMS-986326 in the nonclinical setting.

rats [2] = experiment: Single-dose exploratory SC study in rats; type: in vivo
monkeys [3] = experiment: 2-week toxicity study in monkeys, weekly SC
Treg = experiment: Phase 1 single ascending dose study, Cohort A4; type: in vivo, human; settings: Cohort A4, 3 mg single intravenous infusion, compared to placebo; preliminary
Description: BMS-986326 is assessed in a Phase 1, randomized, double-blind, placebo-controlled, single ascending doses (SAD) study to evaluate the safety, tolerability, pharmacokinetics (PK), and pharmacodynamics (PD) of single doses of BMS-986326 in healthy adult participants.
Blood samples are collected and measured by flow cytometry for quantitating immune cells such as Treg, Tconv, follicular helper T cells (Tfh), B cells, and NK cells by surface markers that may include, but not limited to, cell lineage and activation markers CD3, CD4, CD8, CD14, CD25, CD39, CD45, CD45RA, CD56, CD127, Foxp3, Helios, CXCR5, CCR7, and Ki67. Blood samples are also collected and measured by flow cytometry for determining BMS-986326 engagement to Treg, Tconv, CD8 T cells, and NK cells identified by pSTAT5.
Preliminary Results from BMS-986326 Cohort A4 (3 mg Single Intravenous Infusion)

[4] = tested on: Kit225 Interferon Regulatory Factor 1 (IRF1)-driven reporter cell line; experiment: Kit225 IRF1-driven reporter cell line assay; type: cell-based
monkeys [5] = settings: monkey, in vivo
[6] = Linker-cleavage ex vivo in monkey serum samples (LC-MS/MS); type: in vitro ADME; settings: monkey serum samples ex vivo after SC administration, up to 168 hours
Description: as §1

rats [7] = experiment: 2-week toxicity study in rats, twice weekly SC; type: in vivo
Description: (§2) The highest exposures were noted during the first week of each study and diminished considerably during the second week, due to ADA impact. […] Splenic capsular fibroplasia with inflammation was considered adverse at all twice weekly doses due to moderate to marked severity and was also associated with minimal to mild inflammation in the mesentery (adjacent to the stomach and pancreas), which further contributed to the adversity of the finding. […] The primary BMS-986326-related effects were mostly minimal in severity at all once weekly doses (0.25, 0.5, or 1 mg/kg) and included increased eosinophils (1.9× to 6.7×); minimal capsular fibroplasia/fibrosis of spleen without inflammation or involvement of adjacent mesentery; and pharmacologically mediated infiltration of eosinophils into a few tissues, none of which were considered adverse due to low magnitude of change and lack of evidence of any compromise in functional integrity of organs involved.

monkeys [8] = settings: monkey, in vivo, sc
rats [9] = experiment: 2-week toxicity study in rats, once weekly SC; type: in vivo
Description: as §2

[10] = biological target: IL-2Rβγ (as a pre-assembled heterodimer); experiment: Binding affinity to rat IL-2Rβγ
[11] = Human PK/PD, exposure and efficacious dose projection; settings: projected peak
Description: Human PK was projected using allometric scaling of monkey PK parameters and was assumed to have similar SC bioavailability as in monkeys.
The first approach was based on maximal preclinical efficacy in mouse models dosed with mIL2-CD25.
The selection of the starting dose of 0.1 mg IV is based on the available preclinical PK, toxicology, and pharmacology data. PK/PD modeling and simulations were performed to generate predicted human PK and PD profiles from nonclinical data.

[12] = tested on: pSTAT5 in Tregs, Tconv, CD8 cells and NK cells; experiment: Whole blood pSTAT5 assay, selectivity across cell types; type: cell-based
monkeys [13] = experiment: Pivotal single-dose IV toxicity and cardiovascular safety study in monkeys; type: in vivo
Description: The single- and repeat-dose toxicity of BMS-986326 were characterized in a series of studies in rats for up to 2 weeks and in monkeys up to 12 weeks using selected dosing frequencies. Pivotal good laboratory practice (GLP) repeat-dose studies in both species employed SC administration of BMS-986326 and consisted of two 2-week studies in rats using differing dose frequencies (once weekly [QW] vs twice weekly [2QW]), a 2-week once weekly dosing study in monkeys, and a 12-week (once every 3 week, Q3W) dosing study in monkeys. In addition, single-dose exploratory studies were initially completed in both rats and monkeys to explore the tolerability of BMS-986326, and a single-dose GLP IV toxicity and cardiovascular safety study was also completed in telemeterized monkeys using IV dosing to support IV administration in the first-in-human (FIH) single-ascending dose (SAD) study (IM034001).
Microscopically, there were dose-dependent multisystemic infiltrates of eosinophils and mononuclear cells in some tissues.

## BMS-986326: recombinant fusion protein of human IL2 and extracellular domain of human CD25, (GGGS)3 linker, non-covalent self-blocking homodimer
[1]
  total serum clearance (CLTs): 3.25 mL/h/kg
[1]; IV
  steady-state volume of distribution (Vss): 0.0954 L/kg
[1]; SC dosing
  absolute bioavailability: 58%
  apparent elimination half-life (T-HALF): 28.3 h
  time of maximum concentration (Tmax): 7 h
Rats [2]; male rats, single SC dose
  dose not tolerated (morbidity or death on Day 5): ≥ 25 mg/kg/day
Rats [2]; rats, 5 mg/kg
  mean AUC [0-96 h]: 501 µg·h/mL
Rats [2]; rats, single SC dose
  dose with no adverse effects observed: 5 mg/kg
Rats [2]; rats, ≥25 mg/kg/day
  mean AUC [0-96 h] at not tolerated doses: ≥ 2,080 μg·h/mL
Monkeys [3]; 0.125 mg/kg/week
  mean AUC[0-168 h] at NOAEL: 132 µg·h/mL
Monkeys [3]; 2-week weekly SC
  NOAEL: 0.125 mg/kg/week
Monkeys [3]; weekly SC, 2 weeks
  clinically tolerated doses: ≤ 0.25 mg/kg
Treg
  Treg versus baseline levels: increased from baseline levels
[4]
  decrease of in vitro potency compared to recombinant IL-2: > 100 fold
[4]; Kit225 IRF1-driven reporter cell line, read-out: average half-maximal effective concentration (EC50)
  EC50: 3.4 nM
Monkeys [5]
  decreased platelets: 0.9-0.6
  decreased red cell mass versus pretest: 0.9-0.6
  doses with adverse inflammation in eye choroid and choroid plexus of brain: ≥ 0.25 mg/kg/week
  increased liver weights: 16-75%
  number of tissues affected by mixed cell inflammation: 16-28
Monkeys [5]; 0.75 mg/kg
  clinical signs: adverse clinical signs of toxicity
  increased heart rate: 25-28%
  mean AUC[0-168 h]: ≥ 601 µg·h/mL
[6]
  linker-cleavage: did not show signs of linker-cleavage
Rats [7]; rat, in vivo
  doses with adverse capsular fibroplasia and inflammation of the spleen: ≥ 0.5 mg/kg
Rats [7]; rat, in vivo, 0.5 mg/kg
  increases in eosinophils versus controls: 3-22 ×
Rats [7]; rats, 2-week studies, all doses
  clinically tolerated doses: ≤ 2.5 mg/kg
Rats [7]; rats, twice weekly dosing study
  NOAEL: a NOAEL was not identified
Rats [7]; rats, ≤[…]
  mean AUC [0-336 h] at tolerated doses: ≤ 600 µg·h/mL
Monkeys [8]; 0.075 mg/kg
  AUC: approximately 48 μg·h/mL
Monkeys [8]; 0.75 mg/kg
  AUC: ~407 µg·h/mL
  AUC[INF]: 407 µg·h/mL
Rats [9]; 1 mg/kg once weekly
  mean AUC at NOAEL: 162 µg·h/mL
Rats [9]; once weekly dosing for 2 weeks
  NOAEL: 1 mg/kg
[10]
  Kd: > 4000 nM
[11]; 0.1 mg IV
  Fold-change CD8+: <2 fold
  Fold-change Tregs: <2 fold
[11]; 0.3 mg IV
  Fold-change CD8+: <2 fold
  Fold-change Tregs: <2 fold
[11]; 1 mg IV
  Fold-change CD8+: <2 fold
  Fold-change Tregs: 2-4 fold
[11]; 1 mg SC
  Fold-change CD8+: <2 fold
  Fold-change Tregs: 2-3 fold
[11]; 3 mg IV
  Fold-change CD8+: <2 fold
  Fold-change Tregs: 4-8 fold
[11]; 3 mg SC
  Fold-change CD8+: <2 fold
  Fold-change Tregs: 3-5 fold
[11]; 6 mg IV
  Fold-change CD8+: ~2 fold
  Fold-change Tregs: 7-15 fold
[11]; 6 mg SC
  Fold-change CD8+: <2 fold
  Fold-change Tregs: 4-8 fold
[11]; 8 mg SC
  Fold-change CD8+: ~2 fold
  Fold-change Tregs: 5-10 fold
[11]; 9 mg IV (optional Cohort A6)
  Fold-change CD8+: ~2 fold
  Fold-change Tregs: 10-20 fold
[12]; highest concentration of drug
  % of Tregs pSTAT5+: > 90%
[12]; highest concentration of drug at 71 nM
  % pSTAT5+ cells in Tconv, CD8 cells and NK cells: < 50%
Monkeys [13]; monkey, in vivo, iv
  blood pressure, CLS-like effects, hemodynamic and electrocardiographic parameters: no decreases in blood pressure, CLS-like effects, or other effects on hemodynamic or electrocardiographic parameters
  increase in eosinophils: up to 91.6 ×
  mean AUC [0-336 h] across all doses: ≤ 757 µg·h/mL
Monkeys [13]; monkey, in vivo, iv, 0.5 mg/kg
  increased heart rate relative to baseline: 4%
  transient increase in mean body temperature: up to 1.1 °C
Monkeys [13]; monkeys, single IV 0.05, 0.15 or 0.5 mg/kg
  clinical tolerability: clinically well tolerated at all doses
Monkeys [13]; monkeys, single IV dose
  no-observed-adverse-effect level (NOAEL): 0.5 mg/kg
Monkeys [13]; single-dose monkey toxicology study
  NOAEL AUC[0-336 hours]: ≤ 757 μ·h/ml

Source: US20240325495A1, “FUSION PROTEINS FOR THE TREATMENT OF DISEASE” (Bristol-Myers Squibb Company, priority 2020, published 2024)
